Results reported in patent US7960513B2, “Antibody against a human ADAM protease” (Monash University, priority 2004, dated 2011).

Molecular target: T1, EphA3 (Homo sapiens, UniProt P29320)
T1 construct: expressed in transfected cells
T1 sequence (P29320 21-983): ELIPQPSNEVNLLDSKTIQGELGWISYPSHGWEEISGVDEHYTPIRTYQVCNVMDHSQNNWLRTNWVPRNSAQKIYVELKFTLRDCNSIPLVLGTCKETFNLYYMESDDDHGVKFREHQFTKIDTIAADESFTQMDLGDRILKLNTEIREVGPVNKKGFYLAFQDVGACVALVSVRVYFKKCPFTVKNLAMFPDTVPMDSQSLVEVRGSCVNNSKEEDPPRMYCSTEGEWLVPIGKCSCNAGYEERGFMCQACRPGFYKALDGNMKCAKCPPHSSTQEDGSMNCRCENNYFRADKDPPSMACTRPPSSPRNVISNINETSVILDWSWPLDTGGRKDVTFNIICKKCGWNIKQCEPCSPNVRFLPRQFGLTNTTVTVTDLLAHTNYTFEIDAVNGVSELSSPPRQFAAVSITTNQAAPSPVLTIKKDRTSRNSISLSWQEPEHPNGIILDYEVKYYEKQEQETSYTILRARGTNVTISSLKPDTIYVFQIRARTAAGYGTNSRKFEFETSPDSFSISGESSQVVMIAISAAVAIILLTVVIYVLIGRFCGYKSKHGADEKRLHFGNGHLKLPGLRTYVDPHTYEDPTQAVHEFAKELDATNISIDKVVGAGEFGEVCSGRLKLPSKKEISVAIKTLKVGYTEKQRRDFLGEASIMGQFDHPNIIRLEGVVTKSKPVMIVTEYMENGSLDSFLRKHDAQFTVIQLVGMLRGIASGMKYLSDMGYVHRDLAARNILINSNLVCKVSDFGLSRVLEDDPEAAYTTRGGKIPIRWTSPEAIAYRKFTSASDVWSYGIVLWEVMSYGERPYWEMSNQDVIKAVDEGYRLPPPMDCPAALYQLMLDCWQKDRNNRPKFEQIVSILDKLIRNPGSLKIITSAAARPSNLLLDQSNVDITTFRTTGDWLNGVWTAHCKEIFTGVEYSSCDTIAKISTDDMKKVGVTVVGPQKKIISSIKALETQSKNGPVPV
Experiment: Co-immunoprecipitation from transfected cells, Western blot
Type: cell-based
Conditions: EphA3/293 cells, EEE-A substituted construct
Method: FIG. 1. EphA3-ADAM10 association, ephrin-A5 cleavage and ephrin internalisation. • A. Association of ADAM10 with EphA3 in LiBr melanoma cells and parental or stably transfected EphA3/HEK293 cells. The cells were treated with clustered ephrin-Fc (A5 or A2) or were left untreated (−) prior to lysis. Anti-EphA3 immunoprecipitates from lysates were analysed by Western blot for endogenous ADAM10 (“p” and “m” indicate the pro (unprocessed) and mature (processed) forms of ADAM10). Aliquots from immunoprecipitates were blotted for EphA3 levels to indicate loading (lower panel). […] EphA3/HEK293 or ephrin-A5/HEK293 cells were transfected to express HA-tagged ADAM10ΔPM. Western Blots of anti-HA immuno-precipitates were analysed with antibodies against ephrin-A5 and EphA3, parallel control samples with anti-ADAM10 antibodies. Lysates of ephrin-A5/HEK 293 cells were also extracted with Protein-A Sepharose-bound EphA3 Fc and analysed with anti-ephrin-A5 antibodies. • C. […] Pooled cell lysates and supernatants were pre-cleared with excess Protein-A Sepharose, cleaved ephrin-A5 was extracted using EphA3-Fc coupled to Protein-A Sepharose and analysed by anti-ephrin-A5 immuno-blot. Recombinant, monomeric, single-chain ephrin-A5 (Himanen et al., 2004, Nat Neurosci. 7 501-9; ephrin std) was analysed in parallel. • D. Ephrin-A5 cleavage and internalisation are inhibited by dominant-negative ADAM10. […]

ephrin-independent constitutive association with EphA3: remained unchanged
B1: ADAM10Δpro: cell-surface ADAM10Δpro incorporating the EEE-A amino acid substitutions (protein)
chain: SGQPICGNGMVEQGEECDCGYSDQCKDDCCFDANQPEGKKCKLKPGKQCSPSQGPCCTAQCAFKSKSEKCRDDSDCAKEGICNGFTALCPASDPKPNFTDCNRHTQVCINGQCAGSICAKYDLAACTCASSDGKDDKELCHVCCMKKMAPSTCASTGSLQWSKQFSGRTITLQPGSPCNDFRGYCDVFMRCRLVDADGPLARLKKAIFSPQLYENIAEWIVAHWWAVLLMGIALIMLMAGFIKICSVHTPSSNPKLPPPKPLPGTLKRRRPPQPIQQPPRQRPRESYQMGHMRR
modifications: left off: small tags and cut ends
notes: cell-surface ADAM10Δpro incorporating the EEE-A amino acid substitutions
